# Test results taken from PMC4989314, “Regulatory (pan-)genome of an obligate intracellular pathogen in the PVC superphylum”.
# B1: PqueF_mut 1+2+3+4 (dsDNA)
# DNA 1: AAACTGCAGGGCCAATCTTTCATTGATTGTCCATTCATGGTCGGCAAGGGTTGAGAGAAGGGCTTTATTTTAGGGTTCGTTCTTTGATAGGGTTGCAGGCATGGTGCAAGTGCAGGATTCAGTTTTAGGAAAAAAGACGTTTTATAAGGATCGGTACGAGTCGACAAA
# DNA 2: TTTGTCGACTCGTACCGATCCTTATAAAACGTCTTTTTTCCTAAAACTGAATCCTGCACTTGCACCATGCCTGCAACCCTATCAAAGAACGAACCCTAAAATAAAGCCCTTCTCTCAACCCTTGCCGACCATGAATGGACAATCAATGAAAGATTGGCCCTGCAGTTT
# B2: PftsY_mut 1+2 (dsDNA)
# DNA 1: TTTGTCGACTTATCTTACACAACTGAGACTTCCAATGGTACTACCCTTCTTCCCATCTAGTTTTGAAAAAGTTAAAAATGCCCTCTCCAAAACGCGTTCCGCTCTGGGAGAAAAATTGCGTTCTCTTTTCAGTGGAAAAATCGATGAAGAAACACTGGACTGCAGTTT
# DNA 2: AAACTGCAGTCCAGTGTTTCTTCATCGATTTTTCCACTGAAAAGAGAACGCAATTTTTCTCCCAGAGCGGAACGCGTTTTGGAGAGGGCATTTTTAACTTTTTCAAAACTAGATGGGAAGAAGGGTAGTACCATTGGAAGTCTCAGTTGTGTAAGATAAGTCGACAAA
# Target: T1, His6-Euo (Waddlia chondrophila) (UniProt D6YSI2)
# T1 sequence: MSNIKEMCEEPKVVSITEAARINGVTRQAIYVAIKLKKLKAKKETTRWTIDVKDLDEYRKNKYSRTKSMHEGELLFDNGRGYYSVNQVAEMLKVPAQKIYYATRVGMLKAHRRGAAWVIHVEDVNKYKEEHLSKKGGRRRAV
# Assay: EMSA
# Details: EMSA with Cy5 PCR probes or 80 ng unlabelled DNA (GelRed); buffer, salt, pH and temperature not in material
row,Molecule,binding
1,CACCGGAAGATGTGGTGCTGATTGCGGGCAGAGGGCATGAACCTTATCAAATATTTGCGCATCAAACAATAGAATTTAAAGATCGCGAAGTTGTAGAGGATATATTACATTCATGAGGAGAAGCAATCGCAGGGAATTCTTAAAAAATAG (double strand) [PamiA],binds
2,TTGTCATGAAAAACTCTATGAATCAAATAAGGAGGGGCATTTACATGGCGCTCAGTAAAACTATCAACGAAATGAGGAGCCTTTTTACAGGTCTAATCGATGACCTTCAAAAGGCTGAAGCAGGTAACAAAGCTGCCTCTCAGCGTGTAA (double strand) [PhctA],no binding
3,TGTAATGCCATGGGATCGCGTTTAAGCGAGATCATATAGTAGCTCCTAAAAAAATATTCCTTGCAAGACAAACAAATTTTTTCGTGTAAAGTTTGCATTTTCAAAATCGGACCAGATGAAAATGCGCAAACTCTCTTTTTTACTCCTCC (double strand) [Prhs9],binds
4,TTCGCGGGCAGCGTTGATCCCGCCAAAACCGCCTCCAATAATAATGACTTTAGGTTTGCTCATATCTTGTTTATATAATTAAAAATGATTTTAAAAATCCAGATTAAAATTGTTCGACGAGTTGATGGATTTCTGAAAAGGAAAGGGGGT (double strand) [Pndh],binds
5,TCCAGTGTTTCTTCATCGATTTTTCCACTGAAAAGAGAACGCAATTTTTCTCCCAGAGCGGAACGCGTTTTGGAGAGGGCATTTTTAACTTTTTCAAAACTAGATTTTAAGAATTTTAGTACCATTGGAAGTCTCAGTTGTGTAAGATAA (double strand) [PftsY (frag0)],binds
6,TCGTACCGATCCTTATAAAACGTCTTTTTTCCTAAAACTGAATCCTGCACTTGCACCATGCCTGCAATTTTATCAAAGAACGAATTTTAAAATAAAGAAATTCTCTCAAAAATTGCCGACCATGAATGGACAATCAATGAAAGATTGGCC (double strand) [PqueF (frag0)],binds

# Target: T2, His6-HrcA (Waddlia chondrophila) (UniProt D6YSD6)
# T2 sequence: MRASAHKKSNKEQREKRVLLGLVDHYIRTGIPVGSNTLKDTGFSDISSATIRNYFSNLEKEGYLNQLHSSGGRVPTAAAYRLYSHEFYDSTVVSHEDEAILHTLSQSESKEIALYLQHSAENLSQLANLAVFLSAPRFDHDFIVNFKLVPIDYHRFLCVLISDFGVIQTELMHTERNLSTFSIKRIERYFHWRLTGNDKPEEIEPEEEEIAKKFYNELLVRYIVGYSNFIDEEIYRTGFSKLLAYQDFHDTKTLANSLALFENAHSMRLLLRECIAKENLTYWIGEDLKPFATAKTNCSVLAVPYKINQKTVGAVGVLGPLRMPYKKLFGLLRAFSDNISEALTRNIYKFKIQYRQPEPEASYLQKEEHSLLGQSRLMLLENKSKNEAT
# Assay: EMSA
# Details: EMSA with Cy5 PCR probes or 80 ng unlabelled DNA (GelRed); buffer, salt, pH and temperature not in material
row,Molecule,binding
1,CCTATATCGTATGGCGGCTAAAAGAGCTTGACCGGGCGAAAAGGGAGCAATTTAAGCAAAAGCGGGAACGGTATTTATTGTACCGCTAAAAACTGGCACTTAAATTCATCAACTGCTAATATGTTGACGTAAATCCATTGAACTCTTAAA (double strand) [PgroES3],binds
2,ATTTATAAAGAAACTTCTCTTGGAGGGCTTGCAGTAAACGTGCCTGAATGCTAAAAGATTTGGTATATGGAGCTAATAAAGGATCAAATGCAAAGATACGAAGAACGGGAACTCGTCGAATTCGAAAATCAAGGGATAAAAATTTTTGGA (double strand) [Pwcw_1080],binds
3,CATAACTTTTTGGGAATTTCAAGATCGACTCGGGATCGTGCAGTAAAACATTAGTATCTAATACAAAGGTCTTTTTCTTCACATACGCTCCTTTTTAATAGCACTTATAGCTTGAGAGTGCTAAATCAATTGACTTAAATAGGTTTATTT (double strand) [PphoH],binds
4,CTAGCTAGCTAAACATCTGCTTAAGTGATAACACCTCTAATGCTATCAATATCCTTCGATATTTTGCAATAGAAAATTAGCACTTTGGCAATTAAAGTGCTAATAACTTATCCAGCTCCTCGACAAGATTGCTGAATTTTTTGATGGCAG (double strand) [PgroES1],binds
5,GCTGCTCAATTGGTCTATAAAAAAGGACTTGACTGGCGCCCTTCTATTGTCGACATTTTACCCGTCATTCTGGAAAAACAAATCTAGCAAATAGCTTTGTTGAGTGCTAATTCCTTCTTGACCTCTTTTAAACCCCTTGTTATAATGAAA (double strand) [PhrcA (HrcA EMSA)],binds

# Target: T3, His6-Euo (Waddlia chondrophila, UniProt D6YSI2 1-142)
# T3 sequence: T1 sequence
# Assay: EMSA; EMSA with Cy5 PCR probes or 80 ng unlabelled DNA (GelRed); buffer, salt, pH and temperature not in material
# Details: protein: recombinant; tags: His6; chain copies: 2; label: Cy5; blunt
row,Molecule,binding result
1,B1,no binding
2,B2,no binding
